# Source: IntAct's records for PubMed 22453338
# B1: Cyclin-D1-binding protein 1 (Homo sapiens), O95273 (parent)
# chain: MASATAPAAAVPTLASPLEQLRHLAEELRLLLPRVRVGEAQETTEEFNREMFWRRLNEAAVTVSREATTLTIVFSQLPLPSPQETQKFCEQVHAAIKAFIAVYYLLPKDQGITLRKLVRGATLDIVDGMAQLMEVLSVTPTQSPENNDLISYNSVWVACQQMPQIPRDNKAAALLMLTKNVDFVKDAHEEMEQAVEECDPYSGLLNDTEENNSDNHNHEDDVLGFPSNQDLYWSEDDQELIIPCLALVRASKACLKKIRMLVAENGKKDQVAQLDDIVDISDEISPSVDDLALSIYPPMCHLTVRINSAKLVSVLKKALEITKASHVTPQPEDSWIPLLINAIDHCMNRIKELTQSELEL
# B2: Cyclin-D1-binding protein 1 (Homo sapiens), O95273 (parent)
# chain: B1 chain
# partner: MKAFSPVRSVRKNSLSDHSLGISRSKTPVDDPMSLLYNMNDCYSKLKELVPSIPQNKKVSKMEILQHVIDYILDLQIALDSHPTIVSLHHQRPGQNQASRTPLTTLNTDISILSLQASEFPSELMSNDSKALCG
# Variants of: B1
# Details: with ndf1_mouse Neurod1, Q60867
# ndf1_mouse Neurod1, Q60867, sequence (Q60867 whole entry): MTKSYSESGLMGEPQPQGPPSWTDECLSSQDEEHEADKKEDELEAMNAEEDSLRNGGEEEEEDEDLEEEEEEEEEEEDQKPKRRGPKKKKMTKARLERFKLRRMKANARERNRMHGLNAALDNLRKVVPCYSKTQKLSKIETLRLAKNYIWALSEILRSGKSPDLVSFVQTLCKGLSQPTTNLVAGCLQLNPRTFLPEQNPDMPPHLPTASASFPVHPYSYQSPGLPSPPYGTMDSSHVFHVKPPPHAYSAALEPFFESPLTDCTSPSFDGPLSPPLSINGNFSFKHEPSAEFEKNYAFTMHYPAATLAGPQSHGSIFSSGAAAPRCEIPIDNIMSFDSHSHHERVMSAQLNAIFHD
row,Variant,effect of a mutation on the interaction
1,V271F,increasing interaction

# Variants of: B1
# Details: with ndf1_mouse Neurod1, Q60867
# Remark: another data set of the same source
row,Variant,effect of a mutation on the interaction
1,P166Y,increasing interaction

# Variants of: B1
# Details: with ndf1_mouse Neurod1, Q60867
# Remark: another data set of the same source
row,Variant,effect of a mutation on the interaction
1,N169E,increasing interaction

# Variants of: B1
# Details: with ndf1_mouse Neurod1, Q60867
# Remark: another data set of the same source
row,Variant,effect of a mutation on the interaction
1,V278R,increasing interaction

# Variants of: B2
# Details: with id2_human ID2, Q02363
row,Variant,effect of a mutation on the interaction
1,N169E,increasing interaction

# Variants of: B2
# Details: with id2_human ID2, Q02363
# Remark: another data set of the same source
row,Variant,effect of a mutation on the interaction
1,V271F,increasing interaction

# Variants of: B2
# Details: with id2_human ID2, Q02363
# Remark: another data set of the same source
row,Variant,effect of a mutation on the interaction
1,P166Y,increasing interaction

# Variants of: B2
# Details: with id2_human ID2, Q02363
# Remark: another data set of the same source
row,Variant,effect of a mutation on the interaction
1,V278R,increasing interaction
